From publication PMC9174178 (Cell Reports, 2022)

B1: psNb 1-23 (VHH)
VHH: QVQLVESGGGLVQAGGSLRLSCAASGRTDSISDMGWFRQAPGKEREFVAVVGWSGGGTDYAHSVKGRFTISRDNAKNTVYLQMNSLKPEDTAVYYCAVGSLRVGSFSVEYWGQGTQVTVSS
B2: psNb 2-45 (VHH)
VHH: QVQLVESGGGLVQAGGSLRLSCTASGYDFSILAIAWYRQAPGKERELVAAISRVGSTDYADSVKGRFTISRDNTKNTVSLQMDSLKPEDTAVYYCNAGIPMTTVLSGLGFWGQGTQVTVSS
B3: psNb 2-38 (VHH)
VHH: QVQLVESGGGLVQAGGSLRLSCAAAARFSTSAMGWFRQAPGKEREFVAAISWSNTNTHYADTVKGRFTISADTAKETVDLQMNSLKPEDTAVYYCVQGGWGIRQPIIVDYWGKGTQVTVSS
B4: psNb 1-22 (VHH)
VHH: HVQLVESGGGLVQPGGSLRLSCAASGRSFNSYLMGWFRQAPGKEREFVAWISGSPHDIIRYRDSVKDRFTISRDNAKNTVYLQMNSLKPVDTAVYYCAVGSLRVGSFSPDYWGQGTQVTVSS
B5: psNb 2-34 (VHH)
VHH: HVQLVESGGGLVQAGGSLRLSCAASGRTFSRYAAGWFRQAPGKEREFVAVIEWDGDSAYYADPVKGRFTISRDNAKNTVYLQMNRLKPEDTAVYICAVGGNHYSRSKYYNLDEYDDWGQGTQVTVSS
B6: psNb 2-31 (VHH)
VHH: QVQLVESGGGLVQAGESLRLSCAASKPTFRNFAAGWFRQTPGKDREFVAVIEYDGDSAYYADSVKGRFTISRDNAKNTVYLQMNRLKPGDTAVYICAIGGNHYDPSKYYTADEYDYWGQGTQVTVSS
B7: psNb 2-65 (VHH)
VHH: HVQLVESGGGLVQAGGSLRLSCAASGTISTLNAMGWYRQAPGKQRELLASISNLGTTYHADSVAGRFTISRGSAKNTVNLQMNSLKPDDTAVYYCNTRVLEGGTQIRDYWGQGTQVTVSS
B8: 1-28 (VHH)
VHH: QVQLVESGGGLVQAGGSLRLSCAVSGRTVSTYGMAWFRQTPGKKRDFVATITRSEGTTFYADSVKGRFTISRDNAKNTVYLQMNSLKIEDTAVYYCAVRRDSSWGYSRDLFEYDDWGQGTQVTVSS

How the values were obtained:
[1] = biological target: T1, BM-4831-CoV receptor-binding domain (RBD) (Bat coronavirus BM48-31/BGR/2008); assay: ELISA
[2] = biological target: T2, SARS-CoV receptor-binding domain (RBD) (SARS-CoV (AAP13441.1), UniProt P59594); assay: SPR
[3] = biological target: T1, BM-4831-CoV receptor-binding domain …; assay: SPR
[4] = biological target: W1V1-CoV receptor-binding domain (RBD) (Bat SARS-like coronavirus WIV1, UniProt U5WI05); assay: ELISA
[5] = biological target: Yun11-CoV receptor-binding domain (RBD) (Bat coronavirus Cp/Yunnan2011, UniProt R9QTH3); assay: ELISA
[6] = biological target: BtkY72-CoV receptor-binding domain (RBD) (Bat coronavirus BtKY72, UniProt A0A3Q8AKM0); assay: ELISA
[7] = biological target: Rs7327-CoV receptor-binding domain (RBD) (Bat SARS-like coronavirus Rs7327, UniProt A0A2D1PXC0); assay: ELISA
[8] = biological target: Rs4092-CoV receptor-binding domain (RBD) (Bat SARS-like coronavirus Rs4092, UniProt A0A2D1PX37); assay: ELISA
[9] = biological target: YN2013-CoV receptor-binding domain (RBD) (BtRs-BetaCoV/YN2013, UniProt A0A0U1WJY8); assay: ELISA
[10] = biological target: ZC45-CoV receptor-binding domain (RBD) (Bat SARS-like coronavirus ZC45, UniProt A0A2R3SUW7); assay: ELISA
[11] = biological target: HKU3-1-CoV receptor-binding domain (RBD) (Bat coronavirus HKU3-1, UniProt Q3LZX1); assay: ELISA
[12] = biological target: Shaanxi2011-CoV receptor-binding domain (RBD) (Bat coronavirus Rp/Shaanxi2011, UniProt R9QTA0); assay: ELISA
[13] = biological target: Rp3-CoV receptor-binding domain (RBD) (Bat SARS-like coronavirus Rp3/2004, UniProt Q3I5J5); assay: ELISA
[14] = biological target: RaTG13-CoV receptor-binding domain (RBD) (Bat coronavirus RaTG13, UniProt A0ABF7PLN6); assay: ELISA
[15] = biological target: SHC014-CoV receptor-binding domain (RBD) (Bat SARS-like coronavirus RsSHC014, UniProt U5WLK5); assay: ELISA
[16] = biological target: Rs4081-CoV receptor-binding domain (RBD) (Bat SARS-like coronavirus Rs4081, UniProt A0A2D1PX44); assay: ELISA
[17] = biological target: pangolin17-CoV receptor-binding domain (RBD) (Pangolin coronavirus (pangolin17, …)); assay: ELISA
[18] = biological target: Rf1-CoV receptor-binding domain (RBD) (Bat SARS CoV Rf1/2004, UniProt Q0QDZ0); assay: ELISA
[19] = biological target: SARS-CoV-2 receptor-binding domain (RBD) (SARS-CoV-2 (MN985325.1), UniProt P0DTC2)
[20] = biological target: T2, SARS-CoV receptor-binding domain (RBD)

Binder | binding result [1] | Kd [2] [nM] | Kd [3] [nM] | binding result [4] | binding result [5] | binding result [6] | binding result [7] | binding result [8] | binding result [9] | binding result [10] | binding result [11] | binding result [12] | binding result [13] | binding result [14] | binding result [15] | binding result [16] | binding result [17] | binding result [18] | binding result [19] | binding result [20]
B1 | binds | – | – | – | – | – | – | – | – | – | – | – | – | – | – | – | – | – | – | –
B2 | – | 304 | 0.044 | binds | binds | binds | binds | binds | binds | binds | binds | binds | binds | binds | binds | binds | binds | binds | – | –
B3 | binds | – | – | – | – | – | – | – | – | – | – | – | – | – | – | – | – | – | – | –
B4 | binds | – | – | – | – | – | – | – | – | – | – | – | – | – | – | – | – | – | – | –
B5 | binds | – | – | binds | binds | binds | binds | binds | binds | binds | binds | binds | binds | binds | binds | binds | binds | binds | – | –
B6 | – | 0.00396 | 3.6 | binds | binds | binds | binds | binds | binds | binds | binds | binds | binds | binds | binds | binds | binds | binds | – | –
B7 | binds | – | – | – | – | – | – | – | – | – | – | – | – | – | – | – | – | – | – | –
B8 | – | – | – | – | – | – | – | – | – | – | – | – | – | – | – | – | – | – | binds | binds
